Square brackets hold non-standard residues; d marks the D form. Primed or numbered codes have the meaning given here. Ends that are not written are not given here. * marks the point of attachment. azaTic = 3,4-dihydropyridazine-2(H)-formic acid; Pro(5R-Ph) = O=C(O)[C@@H]1CC[C@H](c2ccccc2)N1; Pro(4Ph)″ = 4-phenylproline (Pro(4-phenyl)); Bip = N[C@@H](Cc1ccc(-c2ccccc2)cc1)C(=O)O; PEG8 = NCCOCCOCCOCCOCCOCCOCCOCCOCCC(=O)O; Gly(Nα-CH2CH2CONH2) = NC(=O)CCNCC(=O)O; 1Nal = N[C@@H](Cc1cccc2ccccc12)C(=O)O; 2Nal = N[C@@H](Cc1ccc2ccccc2c1)C(=O)O; dNMeY = CN[C@H](Cc1ccc(O)cc1)C(=O)O; Hydrocinnamoyl = O=C(CCc1ccccc1)*; Palmitoyl = CCCCCCCCCCCCCCCC(=O)*; NMeQ = CN[C@@H](CCC(N)=O)C(=O)O; Tic = O=C(O)[C@@H]1Cc2ccccc2CN1; NMeL = CN[C@@H](CC(C)C)C(=O)O; NMeV = CN[C@H](C(=O)O)C(C)C; NMeS = CN[C@@H](CO)C(=O)O; dNMeS = CN[C@H](CO)C(=O)O; Thz = O=C(O)[C@@H]1CSCN1; dNMeA = CN[C@H](C)C(=O)O; dTi1c = not defined here; Nleu = CC(C)CNCC(=O)O; βAla = NCCC(=O)O Where only a bound is given, the exact number is not on record here.

B1: YW-148 (peptide)
peptide: [dNMeY]F[NMeL][Thz][dS]Q[2Nal][dA][Tic]S-OH
modifications: N-terminus assumed
SMILES: CN[C@H](Cc1ccc(O)cc1)C(=O)N[C@@H](Cc1ccccc1)C(=O)N(C)[C@@H](CC(C)C)C(=O)N1CSC[C@H]1C(=O)N[C@H](CO)C(=O)N[C@@H](CCC(N)=O)C(=O)N[C@@H](Cc1ccc2ccccc2c1)C(=O)N[C@H](C)C(=O)N1Cc2ccccc2C[C@H]1C(=O)N[C@@H](CO)C(=O)O
B2: YW-153 (peptide)
peptide: [dY]F[NMeL]P[dS]QF[dA][dTi1c]S-OH
modifications: reading uncertain; also: printed as (D-Tyr)-Phe-(NMe-Leu)-Pro-(D-Ser)-Gln-Phe-(D-Ala)-(D-Ti1c)-Ser
B3: YW-98 (peptide)
peptide: [dY]F[NMeL]P[dS]QF[dA][Tic]S-OH
modifications: N-terminus assumed
SMILES: CC(C)C[C@@H](C(=O)N1CCC[C@H]1C(=O)N[C@H](CO)C(=O)N[C@@H](CCC(N)=O)C(=O)N[C@@H](Cc1ccccc1)C(=O)N[C@H](C)C(=O)N1Cc2ccccc2C[C@H]1C(=O)N[C@@H](CO)C(=O)O)N(C)C(=O)[C@H](Cc1ccccc1)NC(=O)[C@H](N)Cc1ccc(O)cc1
B4: YW-134 (peptide)
peptide: {Palmitoyl-PEG8}-[βAla][βAla][dY]F[NMeL]P[dS]QF[dA][Tic]S-OH
SMILES: CCCCCCCCCCCCCCCC(=O)NCCOCCOCCOCCOCCOCCOCCOCCOCCC(=O)NCCC(=O)NCCC(=O)N[C@H](Cc1ccc(O)cc1)C(=O)N[C@@H](Cc1ccccc1)C(=O)N(C)[C@@H](CC(C)C)C(=O)N1CCC[C@H]1C(=O)N[C@H](CO)C(=O)N[C@@H](CCC(N)=O)C(=O)N[C@@H](Cc1ccccc1)C(=O)N[C@H](C)C(=O)N1Cc2ccccc2C[C@H]1C(=O)N[C@@H](CO)C(=O)O
B5: YW-91 (peptide)
peptide: [dY]FLP[dS]QF[dA][Pro(5R-Ph)]S-OH
modifications: N-terminus assumed
SMILES: CC(C)C[C@H](NC(=O)[C@H](Cc1ccccc1)NC(=O)[C@H](N)Cc1ccc(O)cc1)C(=O)N1CCC[C@H]1C(=O)N[C@H](CO)C(=O)N[C@@H](CCC(N)=O)C(=O)N[C@@H](Cc1ccccc1)C(=O)N[C@H](C)C(=O)N1[C@@H](c2ccccc2)CC[C@H]1C(=O)N[C@@H](CO)C(=O)O
B6: YW-132 (peptide)
peptide: [dY]FLP[dS]QF[dA][Tic]S-OH
modifications: not fully specified (N-terminus); printed as 3,5-dihydroxyphenylacetyl-(D-Tyr)-Phe-Leu-Pro-(D-Ser)-Gln-Phe-(D-Ala)-Tic-Ser-OH
B7: YW-142 (peptide)
peptide: [dNMeY]F[NMeL][Thz][dS]Q[1Nal][dA][Tic][NMeS]-OH
modifications: N-terminus assumed
SMILES: CN[C@H](Cc1ccc(O)cc1)C(=O)N[C@@H](Cc1ccccc1)C(=O)N(C)[C@@H](CC(C)C)C(=O)N1CSC[C@H]1C(=O)N[C@H](CO)C(=O)N[C@@H](CCC(N)=O)C(=O)N[C@@H](Cc1cccc2ccccc12)C(=O)N[C@H](C)C(=O)N1Cc2ccccc2C[C@H]1C(=O)N(C)[C@@H](CO)C(=O)O
B8: YW-133 (peptide)
peptide: {Palmitoyl-PEG8}-GG[dY]F[NMeL]P[dS]QF[dA][Tic]S-OH
SMILES: CCCCCCCCCCCCCCCC(=O)NCCOCCOCCOCCOCCOCCOCCOCCOCCC(=O)NCC(=O)NCC(=O)N[C@H](Cc1ccc(O)cc1)C(=O)N[C@@H](Cc1ccccc1)C(=O)N(C)[C@@H](CC(C)C)C(=O)N1CCC[C@H]1C(=O)N[C@H](CO)C(=O)N[C@@H](CCC(N)=O)C(=O)N[C@@H](Cc1ccccc1)C(=O)N[C@H](C)C(=O)N1Cc2ccccc2C[C@H]1C(=O)N[C@@H](CO)C(=O)O
B9: YW-162 (peptide)
peptide: [dNMeY]F[NMeL]P[dS]Q[1Nal][dA][Tic][NMeS]-OH
modifications: N-terminus assumed
SMILES: CN[C@H](Cc1ccc(O)cc1)C(=O)N[C@@H](Cc1ccccc1)C(=O)N(C)[C@@H](CC(C)C)C(=O)N1CCC[C@H]1C(=O)N[C@H](CO)C(=O)N[C@@H](CCC(N)=O)C(=O)N[C@@H](Cc1cccc2ccccc12)C(=O)N[C@H](C)C(=O)N1Cc2ccccc2C[C@H]1C(=O)N(C)[C@@H](CO)C(=O)O
B10: YW-160 (peptide)
peptide: [dY]FLP[dS]QF[dA][Tic]T-OH
modifications: N-terminus assumed
SMILES: CC(C)C[C@H](NC(=O)[C@H](Cc1ccccc1)NC(=O)[C@H](N)Cc1ccc(O)cc1)C(=O)N1CCC[C@H]1C(=O)N[C@H](CO)C(=O)N[C@@H](CCC(N)=O)C(=O)N[C@@H](Cc1ccccc1)C(=O)N[C@H](C)C(=O)N1Cc2ccccc2C[C@H]1C(=O)N[C@H](C(=O)O)[C@@H](C)O
B11: YW-125 (peptide)
peptide: [dNMeY]F[NMeL][Thz][dS]Q[2Nal][dA][Tic][NMeS]-OH
modifications: N-terminus assumed
SMILES: CN[C@H](Cc1ccc(O)cc1)C(=O)N[C@@H](Cc1ccccc1)C(=O)N(C)[C@@H](CC(C)C)C(=O)N1CSC[C@H]1C(=O)N[C@H](CO)C(=O)N[C@@H](CCC(N)=O)C(=O)N[C@@H](Cc1ccc2ccccc2c1)C(=O)N[C@H](C)C(=O)N1Cc2ccccc2C[C@H]1C(=O)N(C)[C@@H](CO)C(=O)O
B12: YW-146 (peptide)
peptide: [dNMeY]F[NMeL]P[dS]Q[2Nal][dA][Tic][NMeS]-OH
modifications: N-terminus assumed
SMILES: CN[C@H](Cc1ccc(O)cc1)C(=O)N[C@@H](Cc1ccccc1)C(=O)N(C)[C@@H](CC(C)C)C(=O)N1CCC[C@H]1C(=O)N[C@H](CO)C(=O)N[C@@H](CCC(N)=O)C(=O)N[C@@H](Cc1ccc2ccccc2c1)C(=O)N[C@H](C)C(=O)N1Cc2ccccc2C[C@H]1C(=O)N(C)[C@@H](CO)C(=O)O
B13: YW-161 (peptide)
peptide: Hydrocinnamoyl-[dY]F[NMeL]P[dS]QF[dA][Tic]S-NH2
SMILES: CC(C)C[C@@H](C(=O)N1CCC[C@H]1C(=O)N[C@H](CO)C(=O)N[C@@H](CCC(N)=O)C(=O)N[C@@H](Cc1ccccc1)C(=O)N[C@H](C)C(=O)N1Cc2ccccc2C[C@H]1C(=O)N[C@@H](CO)C(N)=O)N(C)C(=O)[C@H](Cc1ccccc1)NC(=O)[C@@H](Cc1ccc(O)cc1)NC(=O)CCc1ccccc1

For the assay, the target named is T1, human Chemokine like receptor 1 (human, UniProt Q99788 1-373).
T1 sequence (looked up): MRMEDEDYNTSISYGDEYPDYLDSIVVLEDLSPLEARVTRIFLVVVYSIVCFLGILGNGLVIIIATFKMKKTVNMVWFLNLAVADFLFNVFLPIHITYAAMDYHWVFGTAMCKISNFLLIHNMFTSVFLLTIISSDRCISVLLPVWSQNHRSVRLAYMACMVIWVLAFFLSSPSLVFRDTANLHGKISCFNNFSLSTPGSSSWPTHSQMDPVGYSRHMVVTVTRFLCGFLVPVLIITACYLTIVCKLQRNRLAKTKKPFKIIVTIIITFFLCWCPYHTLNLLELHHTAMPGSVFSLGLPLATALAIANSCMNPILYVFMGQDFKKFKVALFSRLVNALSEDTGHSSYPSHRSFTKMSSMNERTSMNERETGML
Put plainly: cell-based or functional assay.
Regarding [dY]F[NMeV]P[dS]QF[dA][Tic]S-OH [YW-99], the “EC50 (µM), activation of Tango CMKLR1-bla U2OS cells” value (“EC50 (µM), activation” for short) was 12 µM. Under B1 stands 0.0005 µM. The value for [dY]FLP[dNMeS]QF[dA][Tic]S-OH [YW-106] was 24 µM. The value for B2 was 0.0085 µM. For the molecule B3, the “EC50 (µM), activation” value turned out to be 0.003 µM. The value for B4 was 0.0007 µM; that for [dY]F[Nleu]P[dS]QF[dA][Tic]S-OH [YW-102] was 0.31 µM; that for [dY]FLP[dS]QF[dA][Ala(dip)]S-OH [YW-94] was 8.7 µM.

[dY]FLP[dS][NMeQ]F[dA][Tic]S-OH [YW-107]: the “EC50 (µM), activation” value is greater than 50 µM. The value for B5 was 0.46 µM. Under [dY]FLP[dS][Gly(Nα-CH2CH2CONH2)]F[dA][Tic]S-OH [YW-108] stands greater than 50 µM. Take {3,5‑dihydroxyphenylacetyl}-[dY]FLP[dS]QF[dA][Tic]S [YW-131]: the “EC50 (µM), activation” value came to 0.0029 µM.

In the case of B6, the “EC50 (µM), activation” value stood at 0.0055 µM. Regarding B7, the “EC50 (µM), activation” value is 0.0009 µM. Consider B8, for which the “EC50 (µM), activation” value worked out at 0.0007 µM. The value for B9 was 0.0026 µM. For the molecule [dY]FLP[dS]QF[dA][S‑Pip]S-OH [YW-90], the “EC50 (µM), activation” value is greater than 50 µM. Under [dY]FLP[dS]Q[dS][dA][azaTic]S-OH [YW-147] stands greater than 50 µM; under [dY]FLP[dS]QF[dA][Pro(4Ph)″]S-OH [YW-92], 1 µM.

As for B10, the “EC50 (µM), activation” value was found to be 0.285 µM.

Take B11: the “EC50 (µM), activation” value came out at 0.0006 µM. The value for B12 was 0.0014 µM; that for [dY]FLP[dS]QF[dA][Bip]S-OH [YW-95] was 30 µM. The value for [dY]FLP[dS]QF[dNMeA][Tic]S-OH [YW-109] was 11 µM; that for B13 was 0.003 µM.

For the origin of these results see patent US20210403506A1 (XDCEXPLORER SHANGHAI, published 2021).
